# Assay results published in the nanobody polyreactivity screen of Harvey et al. (2022).
# Assay: yeast display, Sf9 membrane polyspecificity reagent, FACS + sequencing; frameworks hold sequencing errors
# In short: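 In a synthetic yeast display library (Saccharomyces cerevisiae BJ5465), nanobody expression was induced with galactose for 36–48 hours. FACS gates were set low and high (top ~1%) using anti-HA fluorescence for expression and streptavidin fluorescence for binding of the Sf9 membrane reagent. Each polyreactivity label is drawn from the gate of origin.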
row,Sequence,polyreactivity (PSR sort gate)
1,QVQLVESGGGLVQAGGSLRLSCAASGSIFASYDMGWYRQAPGKERELVARITFNGGSTYYADSVKGRFTISRDNAKNTVYLQMNSLKPEDTAVYYCANDYRYIFIYPYGWTRYDYWGQGTQVTVSS,low polyreactivity
2,QVQLVESGGGLVQAGGSLRLSCAASGSIFATYAMGWYRQAPGKERELGAAISRSGGSTYYADSVKGRFTISRDNAKNTVYLQMNSLKPEDTAVYYCAAVRGYGWWWSRWGSREYWGQGTQVTVSS,high polyreactivity
3,QVQLVESGGGLVQAGGSLRLSCAASGSIFATYAMGWYRQAPGKERELVAAISSSGSRTYYADSVKGRFTNSRDNAKNTVYLQMNSLKPEDTAVYYCAAGSGRFRPGYGYWGQGTQVTVSS,high polyreactivity
4,QVQLVESGGGLVQAGGSLRLSCAASGSIFATYGMGWYRQAPGKERELVAAITSSGGSTYYADSVKGRFTISRDNAKNTVYLQMNSLKPEDTAVYYCAADSYIIWYGTVVSYGEDSWGQGTQVTVSS,low polyreactivity
5,QVQLVESGGGLVQAGGSLRLSCAASGSIFAVYAMGWYRQAPGKERELVAAISSRGSSTYYADSVKGRFTISRDNAKNTVYLQMNSLIPEDTEVYYCAARPGIRSYPPGYGYWGQGTQVTVSS,low polyreactivity
6,QVQLVESGGGLVQAGGSLRLSCAASGSIFAVYAMGWYRQAPGKERELVASISRTGTTNYADSVKGRFTISRDNAKNTVYLQMNSLKPEDSAVYYCNADAYLYYKYHWGFTFYQYVYWGQGTEVTVSS,low polyreactivity
7,QVQLVESGGGLVQAGGSLRLSCAASGSIFAVYAMGWYRQAPGKERELVASISRTGTTNYADSVKGRFTISRDNAKNTVYLQMYSLKPEDTAVYYCAARPGSWYPSVPSYNYWGQGTQVTVSS,low polyreactivity
8,QVQLVESGGGLVQAGGSLRLSCAASGSIFAVYAMGWYRQAPGKERVLVAASSTDYADSVKGRFTISRDNAKNTVYLQMNSLKTEDTAVYYCAKVGFGIPGGFYYWGQGTQVTVSS,low polyreactivity
9,QVQLVESGGGLVQAGGSLRLSCAASGSIFAWNAMGWYRQAPGKERELVAAIRWSSGRTNYADSVKGRFTISRDNAKNTVYLQMNSLKPEDTAVYYCNARVVNYFRPRTGAREYDYWGQGTQVTVSS,high polyreactivity
10,QVQLVESGGGLVQAGGSLRLSCAASGSIFAWYAMGWYRQAPGKERELVAAIRFRGGSTYYADSVKGRFTISRDNAKNTVYLQMNSLKPEDTAVYYCAGYYWYRSYYWGQGTQVTVSS,high polyreactivity
11,QVQLVESGGGLVQAGGSLRLSCAASGSIFAYAMGWYRQAPGKQRELVAGISSSGGRTYYADSVKGRFTISRDNAKNSVYLQMNSLKPEDTAVYYCAARAQSPPYGYWGQGTQVTVSS,high polyreactivity
12,QVQLVESGGGLVQAGGSLRLSCAASGSIFAYNAMGWYRQAPGKVREFVAVITRSDDSTYADSVKGRFTISRDNAKNTVYLQMNSLKPEDTAVYYCAAQPFDIDGGYRVDYWRQGTQVTVSS,low polyreactivity
13,QVQLVESGGGLVQAGGSLRLSCAASGSIFAYNDMGWYRQAPGKERELVAAIRNGGRTNYADSVKGRFTISRDNAKNTVYLQMNSLKPEDTAVDYWAALNYYGSDYWGQGTQVTVSS,high polyreactivity
14,QVQLVESGGGLVQAGGSLRLSCAASGSIFAYYAMGWYRQAPGKERELVAAISRRGATTYYSDSVKGRFTISRDNAKNTVYLQMNSLKPEDTAVYYCAARTPYWTSYLRYWGQGTQVTVSS,high polyreactivity
15,QVQLVESGGGLVQAGGSLRLSCAASGSIFAYYAMGWYRQAPGKERELVAAISSGGSTNYADSVKGRFTISRDNAKNPVYLQMNSLKPEDTAVYDCAKRSYYGLTYYSWGQGTQVTVSS,low polyreactivity
16,QVQLVESGGGLVQAGGSLRLSCAASGSIFAYYAMGWYRQAPGKERELVARITYSTDGTYYADSVKGRFTISRDNAKNTVYLQMNSLKPEDTAVYYCAVDTWWGFKRYKFDYWGQGTQVTVSS,low polyreactivity

row,Sequence,polyreactivity (PSR sort gate)
1,QVQLVESGGGLVQAGGSLRLSCAASGSIFAYYAMGWYRQAPGKERELVAYISRSGGITYYADSVKGRFTLSRDNAKNTVYLQMNSLKPVDTAVDYCAARYSVRPISIYPFDFGYWGQGTQVTVSS,low polyreactivity
2,QVQLVESGGGLVQAGGSLRLSCAASGSIFDDYAMGWYRKAPGKERELVAAITSGGSTYYADSVKGRFTISRDNAKNTVYLQMNSLKPEDTAVYYRATRYHWSSSFAPVGAYGYWGQGTQVTVSS,low polyreactivity
3,QVQLVESGGGLVQAGGSLRLSCAASGSIFDDYAMGWYRQAPGKERELVAAIDYTGGSTYYADSVKGRFTISRDNAKNTVYLQMNSLIPEDTAVYYCAAEVRVYYYLGGGYSWGQGTQVTVSS,low polyreactivity
4,QVQLVESGGGLVQAGGSLRLSCAASGSIFDDYAMGWYRQAPGKERELVAAISWSGGRPYYADSVKGRFTNSRDNAKNTVYLPMNSLKPEDTAVYYCAATTGVRSRRYYYWVQGTQVTVSS,low polyreactivity
5,QVQLVESGGGLVQAGGSLRLSCAASGSIFDDYAMGWYRQAPGKERELVAAISWSGGRTYYADSVKGRFTISRDNAKNTVYLQMNSLKPEDTAVYYCAASTGVRSRRYYYWGQGTQVTVSS,low polyreactivity
6,QVQLVESGGGLVQAGGSLRLSCAASGSIFDDYAMGWYRQAPGKERELVAAITSGGSTYYADSVKGRFTISLDNAKNTVYLQMNSLKPEDTAVYYRATRYHWSSSFAPVGAYGYWGQATQVTVSS,low polyreactivity
7,QVQLVESGGGLVQAGGSLRLSCAASGSIFDENAMGWYRQAPGKERELVAAITSTDSTNYADSVKGRFTISRDNAKNTVYLQMNSLKPEDTAVYYCARDIKHATSYEALYYSDYDYWGQGTQVTVSS,low polyreactivity
8,QVQLVESGGGLVQAGGSLRLSCAASGSIFDFYSMGWYRQAPGKERELVAAISRGGSTYYADSVKGRFTISRDNAKNTVYFLMNSLKPEDTGVDYCAARDGVLVSWLWFWCDSPYGYWGQGTQGTVSS,low polyreactivity
9,QVQLVESGGGLVQAGGSLRLSCAASGSIFDFYVMGWYRQAPGKERELVAGISEGGDSTYYADSVKGRFTISRDNAKNTVYLQMNSLKPEDTAVYYCAKASAKGSYYWGQGTQVTVSS,low polyreactivity
10,QVQLVESGGGLVQAGGSLRLSCAASGSIFDGNAMGWYRQAPGKERELVAAITQSGCSTYYADSVKGRFTISRDNAKNTVYFQMNSLKPEDNAVYYCAADVPGVYPYDYWGQGTQVTVSS,low polyreactivity
11,QVQLVESGGGLVQAGGSLRLSCAASGSIFDGYAMGWNSQAPGKERELVAAISQRGGSTYYADSVKGRFTISRDNAKNTVYLQINSLKPEETAVYYCAADSSYGTRDYWGQGTQVTVSS,low polyreactivity
12,QVQLVESGGGLVQAGGSLRLSCAASGSIFDGYAMGWYTQAPGKERELVADINNGADTYYADSVKGRFTISRDNAKNTVYLQMYSLKPEDTAVYYCAARYGTDTDIQNVARYDYWGQGTQVTVSS,low polyreactivity
13,QVQLVESGGGLVQAGGSLRLSCAASGSIFDHNAMGWYRQAPGKEREFFARITSSGGGTYYADSVKGRFTISRDNAKNTVYLQMNSLKPEDTAVYYCAKTYYRQGARYPTMFYYWGQGTQVTVSS,low polyreactivity
14,QVQLVESGGGLVQAGGSLRLSCAASGSIFDHYAMGWYRQAPGKERELVAAIRTDGSTKYADSVKGRFTISRDNAKNTVYLQMNSLKPEDTAVYYCAATTGYTARWRNRYIYSYWGQGTEVTVSS,high polyreactivity
15,QVQLVESGGGLVQAGGSLRLSCAASGSIFDHYTMGWYRQAPGKERELVARISSRGGSTYYADSVKGRFTISRDNAKNTVYLQMNSLKPEDTAVYYCAAYKKLLYYKFGSWGQGTQVTVSS,high polyreactivity
